Assay results from patent US20140120109A1 (Regeneron, published 2014).

T1: rat TL1A, soluble, CHO-expressed, residues 76-252 of SEQ ID NO:258 with N-terminal His6-tag (rat, UniProt Q8K3Y7 76-252)
T1 construct: also called rTL1A; rTL1A (CHO)
T1 sequence: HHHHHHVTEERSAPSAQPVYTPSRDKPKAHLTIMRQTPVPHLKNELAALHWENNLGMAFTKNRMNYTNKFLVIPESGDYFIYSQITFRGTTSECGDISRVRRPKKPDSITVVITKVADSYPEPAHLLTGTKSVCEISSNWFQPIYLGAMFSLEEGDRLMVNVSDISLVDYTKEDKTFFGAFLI

T2: Fhm, hTL1A(Q167R), soluble, CHO-expressed, residues 72-251 of SEQ ID NO:246 (human, UniProt O95150 72-251)
T2 chain: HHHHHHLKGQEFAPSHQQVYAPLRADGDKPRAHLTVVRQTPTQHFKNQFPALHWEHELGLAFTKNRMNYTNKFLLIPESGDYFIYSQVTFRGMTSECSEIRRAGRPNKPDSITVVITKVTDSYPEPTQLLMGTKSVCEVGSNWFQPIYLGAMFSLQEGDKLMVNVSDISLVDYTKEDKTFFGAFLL

T3: human TL1A, soluble, CHO-expressed, residues 72-251 of SEQ ID NO:244 with N-terminal His6-tag (human, UniProt O95150 72-251)
T3 sequence: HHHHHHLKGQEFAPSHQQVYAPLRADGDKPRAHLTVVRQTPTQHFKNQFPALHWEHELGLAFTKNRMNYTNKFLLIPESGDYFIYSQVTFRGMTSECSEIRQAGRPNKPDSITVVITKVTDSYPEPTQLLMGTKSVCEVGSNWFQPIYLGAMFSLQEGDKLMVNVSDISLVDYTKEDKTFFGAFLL

T4: Fhm, hTL1A(Q167R), soluble, E. coli-expressed, residues 72-251 of SEQ ID NO:246 (human, UniProt O95150 72-251)
T4 construct: with or without N-terminal Met
T4 chain: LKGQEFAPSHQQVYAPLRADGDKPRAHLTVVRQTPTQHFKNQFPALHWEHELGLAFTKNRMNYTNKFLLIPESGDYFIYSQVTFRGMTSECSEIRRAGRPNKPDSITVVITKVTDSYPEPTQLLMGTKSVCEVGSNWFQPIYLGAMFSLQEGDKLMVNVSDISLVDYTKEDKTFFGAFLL

T5: cynomolgus monkey TL1A, soluble, E. coli-expressed, residues 72-251 of SEQ ID NO:248 (cynomolgus monkey (Macaca fascicularis), UniProt O95150 72-251 (human entry))
T5 construct: with or without N-terminal Met; also called MfTL1A (E. Coli)
T5 chain: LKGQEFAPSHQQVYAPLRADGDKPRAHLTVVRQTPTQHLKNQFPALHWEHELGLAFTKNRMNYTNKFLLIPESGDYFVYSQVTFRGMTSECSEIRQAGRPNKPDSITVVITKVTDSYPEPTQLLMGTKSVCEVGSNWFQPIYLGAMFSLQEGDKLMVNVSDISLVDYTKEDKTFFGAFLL

T6: mouse TL1A, soluble, E. coli-expressed, residues 76-252 of SEQ ID NO:250 (mouse, UniProt Q5UBV8 76-252)
T6 construct: with or without N-terminal Met; also called mTL1A (E. Coli)
T6 sequence: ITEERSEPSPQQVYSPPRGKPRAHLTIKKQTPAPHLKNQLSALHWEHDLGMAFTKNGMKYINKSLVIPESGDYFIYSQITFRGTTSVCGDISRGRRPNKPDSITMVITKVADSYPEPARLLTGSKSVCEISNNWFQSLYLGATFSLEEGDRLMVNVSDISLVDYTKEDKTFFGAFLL


Legend:
[1] = target: T1, rat TL1A, soluble, CHO-expressed, …; assay: SPR 37C, mAb captured
Summary of the method: (§1)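 Biacore T100 SPR with captured mAb and soluble TL1A/Fhm analyte; ka and kd fitted to a 1:1 model assuming monomeric TL1A. KD = kd/ka; t1/2 (min) = ln2/(60·kd).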

[2] = target: T2, Fhm, hTL1A(Q167R), soluble, …; assay: cell-based or functional assay
[3] = target: T1, rat TL1A, soluble, CHO-expressed, …; assay: cell-based or functional assay
[4] = target: T3, human TL1A, soluble, CHO-expressed, …; assay: cell-based or functional assay
[5] = target: T4, Fhm, hTL1A(Q167R), soluble, E. …; assay: SPR 25C, mAb captured
Summary of the method: as §1

[6] = target: T5, cynomolgus monkey TL1A, soluble, E. …; assay: SPR 25C, mAb captured
Summary of the method: as §1

[7] = target: T6, mouse TL1A, soluble, E. coli-expressed, …; assay: SPR 25C, steady state
Summary of the method: as §1

Row | Binder | Kd [1] [nM] | t1/2 [1] [h] | IC50, NFkB-luciferase reporter [2] [nM] | IC50, NFkB-luciferase reporter [3] [nM] | IC50, IFN-g release, average of donors [4] [nM] | IC50, IFN-g release, donor D1 [4] [nM] | IC50, IFN-g release, donor D2 [4] [nM] | IC50, IFN-g release, donor D5 [4] [nM] | IC50, IFN-g release, donor D6 [4] [nM] | IC50, IFN-g release, donor D7 [4] [nM] | IC50, IFN-g release, donor D8 [4] [nM] | IC50, IFN-g release, donor D9 [4] [nM] | IC50, IFN-g release, donor D10 [4] [nM] | IC50, IFN-g release, donor D11 [4] [nM] | IC50, IFN-g release, donor D12 [4] [nM] | Kd [5] [nM] | t1/2 [5] [h] | Kd [6] [nM] | t1/2 [6] [h] | binding result [7] | also measured
1 | H4H1750P (antibody, human IgG4 S228P, V domains shown) VH: QVQLVESGGGVVQPGRSLRLSCVASGFTFSNYGMHWVRQAPGKGLEWVAVISYDGNNDLYSDSVKGRFTISRDNAKNALSLQMTSLRAEDTAVYYCARDSTMTPYYYHGIDVWGQGTTVTVSA VL: DIQMTQSPSSLSASVGDRVTITCRASQDIRNDLGWYQQKPGKAPKRLIYAASSLQSGVPSRFSGSGSGTDFTLTISSLQPEDFATYYCLQHNSYPPTFGQGTKVEIK | – | – | 3.1 | – | – | – | – | – | – | – | – | – | – | – | – | 0.204 | 10.4 | 52.7 | 0.0667 | no binding (tested: up to 100 nM) | –
2 | H4H1745P (antibody, human IgG4 S228P, V domains shown) VH: EVQLVESGGGLVQPGGSLRLSCAASGFTFSSYAMTWVRQAPGKGLEWVSGVSGRGGSTYYADSVKGRFTISRDNSKNTLYLQMNSLRAEDTAVYYCAYWDISSFDYWGQGTLVTVSS VL: DIQLTQSPSFLSASVGDRVTITCWASQGISTYLAWYQQKPGKTPKLLIYAASTLQSGVPSRFSGSGSGTDFTLTISSLQPEDFATYYCQQFNSYPLTFGGGTKVEIK | 16.5 | 0.183 | 0.15 | – | – | – | – | – | – | – | – | – | – | – | – | 0.115 | 3.77 | 0.141 | 3.68 | no binding (tested: up to 100 nM) | –
3 | H4H1704N (antibody, human IgG4 S228P, V domains shown, human IgG4(S108P) form of H2M1704N) VH: EVQLVESGGGLVQPGGSLRLSCAVSGFTFSSYWMSWVRQAPGKGLEWVANIKEDGSEKNYVDSVKGRFTLSSDNAKNSLYLQMNSLRAEDTAVYYCAREDYDSYYKYGMDVWGQGTAVIVSS VL: not shown | 0.046 | 2.22 | 0.17 | 0.4 | 12 | – | – | 17 | 11 | 12 | 19 | 7.5 | 10 | 11 | 8 | – | – | – | – | – | –
4 | H4H1719P (antibody, human IgG4 S228P, V domains shown) VH: EVQLVESGGGLVQPGRSLRLSCVASGFTFQDYAMHWVRQAPGKGLEWVSGINWISDDMGYADSVMGRFTISRDNAKNSLYLQMDSLRAEDTALYYCAKDKGLRFLDYVMDVWGQGTTVTVSA VL: DIVMTQSPLSLPVTPGEPASISCRSTQSLLHRNGHNYLHWYLHKPGQSPQLLIHLGSNRASGVPDRFSGSGSGTDFTLKISRVEAEDVGVYYCMQALQTPYTFGQGTKLEIK | 0.078 | 1.43 | 0.08 | – | – | – | – | – | – | – | – | – | – | – | – | 0.109 | 1.6 | 0.242 | 1.32 | no binding (tested: up to 100 nM) | –
5 | H4H1738P (antibody, human IgG4 S228P, V domains shown) VH: EVQLVESGGALVKPGGSLRLSCAVSGFTFINDWMNWVRQAPGKGLEWVGRIKSTTDGGTTDDAAPVKGRFTISRDDSKNTLYLQMNSLKTEDTAVYYCTRDRNRQRNYFYDGMDVWGQGTTVTVSA VL: DIVMTQSPVSLPVTPGEPASISCRSSQRLLHNNGNNYLDWYLQKPGQSPQLLIYLGSNRASGVPDRFSGSGSGTDFTLKVSRVEAEDVGVYYCMQALQTPYTFGQGTKLEIK | – | – | 0.33 | – | – | – | – | – | – | – | – | – | – | – | – | 1.02 | 0.317 | 1.36 | 0.3 | no binding (tested: up to 100 nM) | –

Continued, in another order:

Row | Kd [1] [nM] | t1/2 [1] [h] | IC50, NFkB-luciferase reporter [2] [nM] | IC50, NFkB-luciferase reporter [3] [nM] | IC50, IFN-g release, average of donors [4] [nM] | IC50, IFN-g release, donor D1 [4] [nM] | IC50, IFN-g release, donor D2 [4] [nM] | IC50, IFN-g release, donor D5 [4] [nM] | IC50, IFN-g release, donor D6 [4] [nM] | IC50, IFN-g release, donor D7 [4] [nM] | IC50, IFN-g release, donor D8 [4] [nM] | IC50, IFN-g release, donor D9 [4] [nM] | IC50, IFN-g release, donor D10 [4] [nM] | IC50, IFN-g release, donor D11 [4] [nM] | IC50, IFN-g release, donor D12 [4] [nM] | Kd [5] [nM] | t1/2 [5] [h] | Kd [6] [nM] | t1/2 [6] [h] | binding result [7] | Binder | also measured
6 | 0.127 | 1.47 | 0.1 | 3.64 | 8.8 | 6.8 | 8.6 | 6.7 | 8.6 | 12 | 11 | 8.1 | 12 | 7.6 | 7.5 | – | – | – | – | – | H4H1804N (antibody, human IgG4 S228P, V domains shown, human IgG4(S108P) form of H2M1804N) VH: QVQLHQWGAGLLKPSETLSLTCAVSGVSFSDYHWAWIRQSPGKGLEWIGDINHRGRTNYNPSLKSRVTISLDTSGNPFSLKLTSVTAADTAVYYCARDFPNWVFDSWGQGILVTVSS VL: EIVLSQSPGTLSLSPGERATLSCRASQSVSSSFLAWYQQYPGQAPRLLIYGASRRATGIPDRFRGSGSGTDFTLTISRLEPEDFAVYYCQQYGSSPLTFGGGTKVENK | IC50, IFN-g release, donor D3 [4]: 8.6 nM; IC50, IFN-g release, donor D4 [4]: 7.7 nM
7 | – | – | 186 | – | 4 | 2.4 | 5.5 | 2.9 | 3.4 | 8 | 5.1 | 5.9 | 2.8 | 3 | 3.1 | – | – | – | – | – | H4H1805N (antibody, human IgG4 S228P, V domains shown, human IgG4(S108P) form of H2M1805N) VH: QVQLQQWGAGLLKPSETLSLTCAVYGGSFTGFYWSWIRQPPGKGLEWIGEINHRGNTNYNPSLKSRVTMSVDTSKNQFSLNMISVTAADTAMYFCASPFYDFWSGSDYWGQGTLVTVSS VL: DIMLTQTPLTSPVTLGQPASISCKSSQSLVHSDGNTYLSWLQQRPGQPPRLLFYKISNRFSGVPDRFSGSGAGTDFTLKISRVEAEDVGVYYCMQATQFPLTFGGGTKVEIK | IC50, IFN-g release, donor D3 [4]: 3.4 nM; IC50, IFN-g release, donor D4 [4]: 2.5 nM
8 | – | – | 0.62 | 1.1 | – | – | – | – | – | – | – | – | – | – | – | – | – | – | – | – | H4H1818N (antibody, human IgG4 S228P, V domains shown, human IgG4(S108P) form of H2M1818N) VH: RLQLVESGGGLVKPGGSLKLSCAASGFTISDYYMSWIRQAPGKGLEWVSYIGGSGSTIYYADSVKGRFTISRDNAKNSLYLQMNSLRAEDTAVYYCAREDADSYYYYGMDVWGQGTTVTVSS VL: not shown | –
9 | 1.6 | 0.433 | 0.12 | 23.9 | 6.5 | 6.6 | 3.1 | 8.5 | 4.7 | 7 | 7 | 9.5 | 7.3 | 7.3 | 9.4 | – | – | – | – | – | H4H1817N (antibody, human IgG4 S228P, V domains shown, human IgG4(S108P) form of H2M1817N) VH: QVQLQQWGAGLLKPSETLSLTCAVSGGSFSDYFWTWIRQPPGKGLEWIGEISHSGRTNYNPSLKSRVTISVDTSMSQFSLKMTSVTAADSAVYYCARDYPNWVFDYWGQGTLVTVSS VL: EIELTQSPGTLSLSPGEGATLSCRASQSVFNSYLAWYQQKPGQAPRLLIYGASRRATGIPDRFSGSGSGTDFTLTISRLEPGDFAVYFCQQYGNSPLTFGGGTKVEIK | IC50, IFN-g release, donor D3 [4]: 4.7 nM; IC50, IFN-g release, donor D4 [4]: 2.4 nM
10 | – | – | – | – | – | – | – | – | – | – | – | – | – | – | – | – | – | 0.274 | 2.03 | no binding (tested: up to 100 nM) | H4H1752P (antibody, human IgG4 S228P, V domains shown) VH: EVQLVESGGGLVQPGGSLRLSCSASGFTFSKYVMTWVRQAPGKGLEWVSAIGPTGRTTEYADSVQGRFTISRDNSMNTVFLHLNSLTAEDTAEYYCAKMFDWNYDVYFDSWGQGTLVTVSS VL: DIQMTQSPSILSASVGDRVTITCRTSQSISNWLAWYQQKPGKAPNLLIYKASSLESGVPSRFSGSGSGTEFTLTISSLQPDDFATYYCQQYYRYWTFGQGTKVEIK | binding result [5]: no binding (tested: up to 100 nM)
